Consider 9 molecules from patent US20110091971A1, “Differentiation of Pluripotent Stem Cells” (priority 2008, published 2011).

In this assay the test system is H1 or H9 human embryonic stem cells. Briefly: Activin A bioassay: differentiation of human embryonic stem cells to definitive endoderm, cell number and SOX17 intensity by high content analysis (96-well, four days).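 For Cell Number average: Raw total cell count per well from high content imaging.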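 For Sox 17 Intensity average: total fluorescence of the cell multiplied by cell area.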 The class given is cell-based. To be noted: for Sox 17 Intensity % of control: control = R&D Sys Activin A 100 ng/ml on same plate. The text has this: Activin A is an important mediator of differentiation in a broad range of cell types. […] A bioassay that measures this differentiation in human embryonic stem cells was adapted in miniaturized format to 96-well plates for screening purposes. Validation was completed using treatment with commercial sources of activin A and Wnt3a recombinant proteins and measuring protein expression of the transcription factor SOX17, which is considered a representative marker of definitive endoderm.
Live Cell Assay: Briefly, clusters of H1 or H9 human embryonic stem cells were grown on growth factor-reduced MATRIGEL™ (Invitrogen; Cat #356231)-coated tissue culture plastic. Cells were passaged using collagenase (Invitrogen; Cat # Cat #17104-019) treatment and gentle scraping, washed to remove residual enzyme, and plated in a ratio of 1:1 (surface area) on growth factor-reduced MATRIGEL™-coated 96-well plates (black, 96-well; Packard ViewPlates; Cat #6005182). Cells were allowed to attach as clusters and then recover log phase growth over a 1 to 3 day period, feeding daily with MEF conditioned medium supplemented with 8 ng/ml bFGF (R&D Systems; Cat #233-FB).
The assay was initiated by washing the wells of each plate twice in PBS and followed by adding an aliquot (100 μl) of test sample in DMEM:F12 basal medium (Invitrogen; Cat #11330-032) to each well. Test conditions were performed in triplicate, feeding […] by aspirating and replacing the medium from each well with test samples over a total four day assay period. On the first and second day of assay, test samples added to the assay wells were diluted in DMEM:F12 with 0.5% FCS (HyClone; Cat #SH30070.03) and 20 ng/ml Wnt3a (R&D Systems; Cat #1324-WN). On the third and fourth day of assay, test samples added to the assay wells were diluted in DMEM:F12 with 2% FCS, without any Wnt3a. Positive control samples consisted of recombinant human activin A (Peprotech; Cat #120-14) added at a concentration of 100 ng/ml throughout assay plus Wnt3a (20 ng/ml) on days 1 and 2. Negative control samples omitted treatment with both activin A and Wnt3a.
High Content Analysis: At the conclusion of four days of culture, assay plates were washed twice with PBS, fixed with 4% paraformaldehyde at room temperature for 20 minutes, then washed three times with PBS and permeabilized with 0.5% Triton X-100 for 20 minutes at room temperature. Cells were washed again three times with PBS and blocked with 4% chicken serum (Invitrogen; Cat #16110082) in PBS for 30 minutes at room temperature. Primary antibody (goat anti-human SOX17; R&D Systems; cat #AF1924) was diluted 1:100 in 4% chicken serum and added to each well for one hour at room temperature. Alexa Fluor 488 conjugated secondary antibody (chicken anti-goat IgG; Molecular Probes; Cat #) was diluted 1:200 in PBS and added to each sample well after washing three times with PBS. To counterstain nuclei, 4 μg/ml Hoechst 33342 (Invitrogen; Cat #H3570) was added for ten minutes at room temperature. Plates were washed once with PBS and left in 100 μl/well PBS for imaging.
Imaging was performed using an IN Cell Analyzer 1000 (GE Healthcare) utilizing the 51008bs dichroic for cells stained with Hoechst 33342 and Alexa Fluor 488. Exposure times were optimized from positive control wells and from untreated negative control wells stained with secondary antibody alone. Images from 15 fields per well were acquired to compensate for any cell loss during the bioassay and subsequent staining procedures. Measurements for total cell number and total SOX17 intensity were obtained from each well using IN Cell Developer Toolbox 1.7 (GE Healthcare) software. Segmentation for the nuclei was determined based on grayscale levels (baseline range 100-300) and nuclear size. Averages and standard deviations were calculated for each replicate data set. […]

Setting [1] is: supernatant concentration 1x, assay dilution 1:20.
Where [2] appears, read: supernatant concentration 10x, assay dilution 1:20.
The mark [3] stands for this setting: supernatant concentration 10x, assay dilution 1:40.

B1: ACTN62: activin A variant peptide, SEQ ID 63 (protein)
chain: GLECDGKVNICCKKQSFGQAKDIGWNDWIIAPSGYHGGGCTGECPSHIAGTSGSSLSFHSTVINHYRMRGHSPWANLKSCCSPTKLRPMSMLYYDDGQNIIKKDIQNMVVEECGCT
For the molecule B1, under setting [1], the “Cell Number average” value stood at 1661, the “Sox 17 Intensity average” value worked out at 1.05E+06 and the “Sox 17 Intensity % of control” value is given as 3.6%. For the same molecule, under setting [2], the “Cell Number average” value is on record as 5728, the “Sox 17 Intensity average” value amounted to 2.45E+05 and the “Sox 17 Intensity % of control” value came to 0.8%. For the same molecule, under setting [3], the “Cell Number average” value amounted to 3782, the “Sox 17 Intensity average” value is given as 1.33E+06 and the “Sox 17 Intensity % of control” value is on record as 4.5%.

B2: ACTN87: activin A variant peptide, SEQ ID 88 (protein)
chain: GLECDGKVNICCKKQSFGQAKDIGWNDWIIAPSGYHGGSCSGECPSHIAGTSGSSLSFHSTVINHYRMRGHSPFANLKSCCSPTKLRPMSMLYYDDGQNIIKKDIQNMVVEECGCT
On to B2, for which, under setting [1], the “Cell Number average” value amounted to 1548, the “Sox 17 Intensity average” value was 5.85E+05 and the “Sox 17 Intensity % of control” value is 2.6%. Moreover, under setting [2], the “Cell Number average” value is given as 3258, the “Sox 17 Intensity average” value amounted to 7.89E+05 and the “Sox 17 Intensity % of control” value amounted to 3.4%. In addition, under setting [3], the “Cell Number average” value stood at 3613, the “Sox 17 Intensity average” value turned out to be 3.99E+05 and the “Sox 17 Intensity % of control” value turned out to be 1.7%.

B3: ACTN64: activin A variant peptide, SEQ ID 65 (protein)
chain: GLECDGKVNICCKKQSFGQTKDIGWNDWIIAPSGYHGGGCSGECPSHIAGTSGSSLSFHSTVINHYRMRGHSPWANLKSCCSPTKLRPMSMLYYDDGQNIIKKDIQGMVVEECGCT
On to B3, for which the “Cell Number average” value runs as follows: under setting [1], 2415; under setting [2], 2215; under setting [3], 2688. In addition, the “Sox 17 Intensity average” value by setting is: under setting [1], 1.30E+06; under setting [2], 1.55E+06; under setting [3], 1.12E+06. In addition, the “Sox 17 Intensity % of control” value reads like this: under setting [1], 4.4%; under setting [2], 5.2%; under setting [3], 3.8%.

B4: ACTN79: activin A variant peptide, SEQ ID 80 (protein)
chain: GLECDGKVNICCKKQSFGQAKDIGWNDWIIAPSGYHGGGCTGECPSHIAGTSGSSLSFHSTVINHYRMRGHSPWANLKSCCSPTKLRPMSMLYYDDGQNIIKKDIQRMVVEECGCT
On to B4, for which, under setting [1], the “Cell Number average” value is 2958, the “Sox 17 Intensity average” value was determined as 4.07E+05 and the “Sox 17 Intensity % of control” value was 1.8%. Further, under setting [2], the “Cell Number average” value was 7704, the “Sox 17 Intensity average” value was determined as 3.83E+05 and the “Sox 17 Intensity % of control” value was determined as 1.7%. Besides, under setting [3], the “Cell Number average” value is given as 2486, the “Sox 17 Intensity average” value came out at 6.19E+04 and the “Sox 17 Intensity % of control” value was 0.3%.

B5: ACTN75: activin A variant peptide, SEQ ID 76 (protein)
chain: GLECDGKVNICCKKQSFGQAKDIGWNDWIIAPSGYHGGGCSGECPSHIAGTSGSSLSFHSTVINHYRMRGHSPWANLKSCCSPTKLRPMSMLYYDDGQNIIKKDIQRMKVEECGCT
Turning to B5, under setting [1], the “Cell Number average” value was 2873, the “Sox 17 Intensity average” value is reported as 1.81E+05 and the “Sox 17 Intensity % of control” value is given as 0.8%. Under setting [2], the “Cell Number average” value worked out at 3867, the “Sox 17 Intensity average” value is 3.91E+05 and the “Sox 17 Intensity % of control” value is 1.7%. Moreover, under setting [3], the “Cell Number average” value is recorded as 3641, the “Sox 17 Intensity average” value is recorded as 1.24E+06 and the “Sox 17 Intensity % of control” value was determined as 5.4%.

B6: ACTN84: activin A variant peptide, SEQ ID 85 (protein)
chain: GLECDGKVNICCKKQSFGQAKDIGWNDWIIAPSGYHGGGCSGECPSHIAGTSGSSLSFHSTVINHYRMRGHSPFANLKSCCSPTKLRPMSMLYYDDGQNIIKKDIQNMVVEECGCT
In the case of B6, under setting [1], the “Cell Number average” value turned out to be 1976, the “Sox 17 Intensity average” value stood at 3.37E+05 and the “Sox 17 Intensity % of control” value was determined as 1.5%. Besides, under setting [2], the “Cell Number average” value amounted to 2272, the “Sox 17 Intensity average” value turned out to be 2.65E+05 and the “Sox 17 Intensity % of control” value worked out at 1.2%. Moreover, under setting [3], the “Cell Number average” value turned out to be 5228, the “Sox 17 Intensity average” value is given as 8.40E+05 and the “Sox 17 Intensity % of control” value is recorded as 3.7%.

B7: ACTN71: activin A variant peptide, SEQ ID 72 (protein)
chain: GLECDGKVNICCKKQSFGQAKDIGWNDWIIAPSGYHGGGCTGECPSHIAGTSGSSLSFHSTVINHYRMRGHSPFANLKSCCSPTKLRPMSMLYYDDGQNIIKKDIQNMKVEECGCT
B7: the “Cell Number average” value runs as follows: under setting [1], 1621; under setting [2], 3909; under setting [3], 1970. In addition, the “Sox 17 Intensity average” value is, setting by setting: under setting [1], 2.45E+05; under setting [2], 3.61E+05; under setting [3], 1.01E+06. The “Sox 17 Intensity % of control” value runs as follows: under setting [1], 0.8%; under setting [2], 1.2%; under setting [3], 3.4%.

B8: ACTN63: activin A variant peptide, SEQ ID 64 (protein)
chain: GLECDGKVNICCKKQSFSQAKDIGWNDWIIAPSGYHGGGCTGECPSHIAGTSGSSLSFHSTVINHYRMRGHSPFANLKSCCSPTKLRPMSMLYYDDGQNIIKKDIQGMVVEECGCT
For B8, under setting [1], the “Cell Number average” value stood at 3380, the “Sox 17 Intensity average” value came to 1.07E+06 and the “Sox 17 Intensity % of control” value stood at 3.6%. Further, under setting [2], the “Cell Number average” value is on record as 1935, the “Sox 17 Intensity average” value came to 2.28E+06 and the “Sox 17 Intensity % of control” value is reported as 7.7%. Moreover, under setting [3], the “Cell Number average” value is 2718, the “Sox 17 Intensity average” value is reported as 2.01E+06 and the “Sox 17 Intensity % of control” value is recorded as 6.8%.

B9: ACTN76: activin A variant peptide, SEQ ID 77 (protein)
chain: GLECDGKVNICCKKQLFGQTKDIGWNDWIIAPSGYHGGGCSGECPSHIAGTSGSSLSFHSTVINHYRMRGHSPNANLKSCCSPTKLRPMSMLYYDDGQNIIKKDIQGMKVEECGCT
For the molecule B9, under setting [1], the “Cell Number average” value is listed as 3613, the “Sox 17 Intensity average” value was 9.19E+05 and the “Sox 17 Intensity % of control” value was determined as 4.0%. In addition, under setting [2], the “Cell Number average” value turned out to be 4732, the “Sox 17 Intensity average” value was found to be 1.43E+06 and the “Sox 17 Intensity % of control” value amounted to 6.2%. Also, under setting [3], the “Cell Number average” value is 7608, the “Sox 17 Intensity average” value turned out to be 7.54E+05 and the “Sox 17 Intensity % of control” value came to 3.3%.
